Measured values as given in paper PMC3629940, “Exploring the structure and function of Thermotoga maritima CorA reveals the mechanism of gating and ion selectivity in Co^2+/Mg^2+ transport” (Biochemical Journal, 2013).

Target: the molecule itself
Test: SEC; size-exclusion chromatography of the mutants to verify channel intactness (Supplementary Figure S2); conditions of this run not told

Protein	binding result
Thermotoga maritima CorA N288L mutant (natural protein, CorA of Thermotoga maritima with N288L; source: E. coli, overexpressed, purified (1% DDM solubilisation, Ni-NTA, TEV cleavage, Superdex 200)) MEEKRLSAKKGLPPGTLVYTGKYREDFEIEVMNYSIEEFREFKTTDVESVLPFRDSSTPTWINITGIHRTDVVQRVGEFFGIHPLVLEDILNVHQRPKVEFFENYVFIVLKMFTYDKNLHELESEQVSLILTKNCVLMFQEKIGDVFDPVRERIRYNRGIIRKKRADYLLYSLIDALVDDYFVLLEKIDDEIDVLEEEVLERPEKETVQRTHQLKRNLVELRKTIWPLREVLSSLYRDVPPLIEKETVPYFRDVYDHTIQIADTVETFRDIVSGLLDVYLSSVSNKTLEVMKVLTIIATIFMPLTFIAGIYGMNFEYMPELRWKWGYPVVLAVMGVIAVIMVVYFKKKKWL	binds
Thermotoga maritima CorA T295L mutant (natural protein, CorA of Thermotoga maritima with T295L; source: E. coli, overexpressed, purified (1% DDM solubilisation, Ni-NTA, TEV cleavage, Superdex 200)) MEEKRLSAKKGLPPGTLVYTGKYREDFEIEVMNYSIEEFREFKTTDVESVLPFRDSSTPTWINITGIHRTDVVQRVGEFFGIHPLVLEDILNVHQRPKVEFFENYVFIVLKMFTYDKNLHELESEQVSLILTKNCVLMFQEKIGDVFDPVRERIRYNRGIIRKKRADYLLYSLIDALVDDYFVLLEKIDDEIDVLEEEVLERPEKETVQRTHQLKRNLVELRKTIWPLREVLSSLYRDVPPLIEKETVPYFRDVYDHTIQIADTVETFRDIVSGLLDVYLSSVSNKTNEVMKVLLIIATIFMPLTFIAGIYGMNFEYMPELRWKWGYPVVLAVMGVIAVIMVVYFKKKKWL	binds
Thermotoga maritima CorA T299L mutant (natural protein, CorA of Thermotoga maritima with T299L; source: E. coli, overexpressed, purified (1% DDM solubilisation, Ni-NTA, TEV cleavage, Superdex 200)) MEEKRLSAKKGLPPGTLVYTGKYREDFEIEVMNYSIEEFREFKTTDVESVLPFRDSSTPTWINITGIHRTDVVQRVGEFFGIHPLVLEDILNVHQRPKVEFFENYVFIVLKMFTYDKNLHELESEQVSLILTKNCVLMFQEKIGDVFDPVRERIRYNRGIIRKKRADYLLYSLIDALVDDYFVLLEKIDDEIDVLEEEVLERPEKETVQRTHQLKRNLVELRKTIWPLREVLSSLYRDVPPLIEKETVPYFRDVYDHTIQIADTVETFRDIVSGLLDVYLSSVSNKTNEVMKVLTIIALIFMPLTFIAGIYGMNFEYMPELRWKWGYPVVLAVMGVIAVIMVVYFKKKKWL	binds
